From US11111484B2, “Streptococcus bacteriophage lysins for detection and treatment of gram positive bacteria” (priority 2011, dated 2021)
“Also recorded” adds a separate entry of the source.

Assays:
S. dysgalactiae GGS = assay: ΔPlySs1 OD600 lysis, 1 hr, optimal buffering conditions; assay type: cell-based, Streptococcus dysgalactiae
S. gordonii 10558 = assay: as above; assay type: cell-based, Streptococcus gordonii
S. equi 9528 = assay: as above; assay type: cell-based, Streptococcus equi
S. sanguinis 10556 = assay: as above; assay type: cell-based, Streptococcus sanguinis
E. faecium EFSK2 = assay: as above; assay type: cell-based, Enterococcus faecium
M. luteus 4698 = assay: as above; assay type: cell-based
B. thuringiensis HD73 = assay: as above; assay type: cell-based, Bacillus thuringiensis
S. agalactiae 090R = assay: as above; assay type: cell-based, Streptococcus agalactiae
S. suis strain 7997 = assay: PlySs2 OD600 lytic activity test, various concentrations; assay type: cell-based, Streptococcus suis
MRSA strain MW2 = assay: resistance assay, exposure to incrementally increasing concentrations; assay type: cell-based, Staphylococcus aureus; conditions: concentration doubled daily from 1/32 to 4× MIC over 8 days
S. pyogenes strain 5005 = assay: as above; assay type: cell-based, Streptococcus pyogenes; conditions: S. pyogenes 5005; concentration doubled daily from 1/32 to 4× MIC over 8 days
[1] = tested on: cultures from the oral cavities of two rats; assay: rat oral cavity microbiota study, drops on culture lawns; assay type: cell-based, rat oral bacteria; conditions: 10 μL PlySs2 drops on BHI agar lawns; the one culture confirmed as S. aureus
MRSA [2] = assay: MRSA mouse sepsis model; assay type: in vivo, FVB/NJ mice
Protocol: PlySs2 lysin activity against S. aureus has been further evaluated in an MRSA mouse sepsis model. In the MRSA mouse sepsis model, susceptible mice (FVB/NJ mice, weight range 15-20 g) were injected with 500 μL of 5×10^5 (approx LD100) MRSA cells/mL in 5% hog gastric mucin in PBS intraperitoneally (IP). After 3 hours, all of the mice are bacteremic with MRSA in their organs (including spleen, liver, kidney, and heart/blood). To determine PlySs2 activity in this model, 500 μL PlySs2 at 2 mg/mL was injected IP 3 hours after injecting MRSA. […] Control mice were injected with 500 μL PBS. Survival was evaluated over ten days. The control mice die within 18-20 hours.

S. agalactiae = assay: CFU studies, bactericidal effect; assay type: cell-based, Streptococcus agalactiae; conditions: 128 μg/ml PlySs2, 60 mins
Protocol: Log-phase bacteria were resuspended in buffer A to an OD600 of 0.1 (=0.5 McFarland≈10^8 CFU/ml). PlySs2 was added at 128 μg/ml to polypropylene microtiter plates (Costar) in triplicate for each test organism. Plates were sealed and incubated at 37° C. with shaking every 5 minutes for 1 hour. After 1 hour of incubation, cells were serially diluted in 10-fold increments and plated on BHI. Triplicate controls for each strain were performed with buffer B replacing PlySs2.

MRSA [3] = assay: MIC studies; assay type: cell-based, Staphylococcus aureus
Protocol: The Wiegand, et al. protocol to determine minimum inhibitory concentrations was followed with adjustments detailed below. A final suspension of ≈5×10^5 cells/ml in MHB (or BHI for S. pyogenes) resulted after Sterile-filtered lysin or vehicle was added at the appropriate concentration. These tests were distributed within a 96-well microtiter plate. The MIC's were determined, in this experiment, by detection of pellet formation in the bottom of rounded polysterene plate wells. They were also corroborated colorimetrically with alamarBlue®.

Listeria strains = assay: PlySs2 lytic activity against species and strains (FIG. 25); assay type: cell-based; conditions: 32 μg/ml, 60 minutes
Protocol: (§1) FIG. 25 provides PlySs2 activity against different species and strains. Log-phase cultures were exposed to 32 μg/ml PlySs2 for 60 minutes in phosphate buffer. The final OD600 of the treated samples were divided by the final OD600 of the untreated samples to generate the normalized values above. Multiple Staphylococci (including, but not limited to: MRSA, MSSA, and VISA), Streptococci, Listeria, Enterococci, and Bacilli were tested for susceptibility to PlySs2 activity. Escherichia and Pseudomonas were tested as Gram-negative controls.

Pseudomonas = assay: as above; assay type: cell-based; conditions: Gram-negative control
Protocol: as §1

S. suis 7997 = assay: PlySs2 biochemical characterization, turbidity reduction (OD600)

B1: ΔPlySs1: truncated PlySs1 lysin, SEQ ID NO:2, N-terminal 254 amino acids: only N-terminal enzymatic and central binding domains (protein, listed as Streptococcus suis)
chain: MTINLETSIRWMSDRVGKVSYSMDYRNGPNSYDCSSAVYYALMAGGAISAGWAVNTEYMHDWLIRNGYVLVAENKPFNAQRHDVCILGKRGYSSGAGGHVVIFVDNVNVIHCNYARNGISIDNYNQVHRGMYYYLYRPANQPSISNKSLDQLVKETLAGVHGNGDTRKASLGSQYEAVMAVINGKASASEKSDEELAREVLAGKHGAGEDRKRSLGPRYEPVQAKVNELLKAKEKPSETAKNEPQTVQFKEDGDL
lysis value after 1 hr (treated/untreated OD600 ratio) (S. dysgalactiae GGS; 6.5 μg/ml): 0.30 | lysis value after 1 hr (treated/untreated OD600 ratio) (S. dysgalactiae GGS; 13 μg/ml): 0.27 | lysis value after 1 hr (treated/untreated OD600 ratio) (S. dysgalactiae GGS; 30 μg/ml): 0.15 | lysis value after 1 hr (treated/untreated OD600 ratio) (S. dysgalactiae GGS; 65 μg/ml): 0.11 | lysis value after 1 hr (treated/untreated OD600 ratio) (S. dysgalactiae GGS; 130 μg/ml): 0.14 | lysis value after 1 hr (treated/untreated OD600 ratio) (S. gordonii 10558; 6.5 μg/ml): 0.76 | lysis value after 1 hr (treated/untreated OD600 ratio) (S. gordonii 10558; 13 μg/ml): 0.32 | lysis value after 1 hr (treated/untreated OD600 ratio) (S. gordonii 10558; 30 μg/ml): 0.19 | lysis value after 1 hr (treated/untreated OD600 ratio) (S. gordonii 10558; 65 μg/ml): 0.09 | lysis value after 1 hr (treated/untreated OD600 ratio) (S. gordonii 10558; 130 μg/ml): 0.06 | lysis value after 1 hr (treated/untreated OD600 ratio) (S. equi 9528; 6.5 μg/ml): 0.66 | lysis value after 1 hr (treated/untreated OD600 ratio) (S. equi 9528; 13 μg/ml): 0.45 | lysis value after 1 hr (treated/untreated OD600 ratio) (S. equi 9528; 30 μg/ml): 0.25 | lysis value after 1 hr (treated/untreated OD600 ratio) (S. equi 9528; 65 μg/ml): 0.19 | lysis value after 1 hr (treated/untreated OD600 ratio) (S. equi 9528; 130 μg/ml): 0.16 | lysis value after 1 hr (treated/untreated OD600 ratio) (S. sanguinis 10556; 6.5 μg/ml): 0.48 | lysis value after 1 hr (treated/untreated OD600 ratio) (S. sanguinis 10556; 13 μg/ml): 0.44 | lysis value after 1 hr (treated/untreated OD600 ratio) (S. sanguinis 10556; 30 μg/ml): 0.28 | lysis value after 1 hr (treated/untreated OD600 ratio) (S. sanguinis 10556; 65 μg/ml): 0.21 | lysis value after 1 hr (treated/untreated OD600 ratio) (S. sanguinis 10556; 130 μg/ml): 0.11 | lysis value after 1 hr (treated/untreated OD600 ratio) (E. faecium EFSK2; 6.5 μg/ml): 0.85 | lysis value after 1 hr (treated/untreated OD600 ratio) (E. faecium EFSK2; 13 μg/ml): 0.67 | lysis value after 1 hr (treated/untreated OD600 ratio) (E. faecium EFSK2; 30 μg/ml): 0.52 | lysis value after 1 hr (treated/untreated OD600 ratio) (E. faecium EFSK2; 65 μg/ml): 0.32 | lysis value after 1 hr (treated/untreated OD600 ratio) (E. faecium EFSK2; 130 μg/ml): 0.13 | lysis value after 1 hr (treated/untreated OD600 ratio) (M. luteus 4698; 6.5 μg/ml): 0.84 | lysis value after 1 hr (treated/untreated OD600 ratio) (M. luteus 4698; 13 μg/ml): 0.90 | lysis value after 1 hr (treated/untreated OD600 ratio) (M. luteus 4698; 30 μg/ml): 0.83 | lysis value after 1 hr (treated/untreated OD600 ratio) (M. luteus 4698; 65 μg/ml): 0.87 | lysis value after 1 hr (treated/untreated OD600 ratio) (M. luteus 4698; 130 μg/ml): 0.82 | lysis value after 1 hr (treated/untreated OD600 ratio) (B. thuringiensis HD73; 6.5 μg/ml): 0.99 | lysis value after 1 hr (treated/untreated OD600 ratio) (B. thuringiensis HD73; 13 μg/ml): 0.98 | lysis value after 1 hr (treated/untreated OD600 ratio) (B. thuringiensis HD73; 30 μg/ml): 0.93 | lysis value after 1 hr (treated/untreated OD600 ratio) (B. thuringiensis HD73; 65 μg/ml): 0.86 | lysis value after 1 hr (treated/untreated OD600 ratio) (B. thuringiensis HD73; 130 μg/ml): 0.60 | lysis value after 1 hr (treated/untreated OD600 ratio) (S. agalactiae 090R; 6.5 μg/ml): 0.97 | lysis value after 1 hr (treated/untreated OD600 ratio) (S. agalactiae 090R; 13 μg/ml): 0.99 | lysis value after 1 hr (treated/untreated OD600 ratio) (S. agalactiae 090R; 30 μg/ml): 0.97 | lysis value after 1 hr (treated/untreated OD600 ratio) (S. agalactiae 090R; 65 μg/ml): 0.98 | lysis value after 1 hr (treated/untreated OD600 ratio) (S. agalactiae 090R; 130 μg/ml): 0.93

B2: PlySs2: Streptococcus suis prophage lysin, SEQ ID NO:3; N-terminal CHAP domain and C-terminal SH3-type 5 domain (protein, listed as Streptococcus suis)
chain: MTTVNEALNNVRAQVGSGVSVGNGECYALASWYERMISPDATVGLGAGVGWVSGAIGDTISAKNIGSSYNWQANGWTVSTSGPFKAGQIVTLGATPGNPYGHVVIVEAVDGDRLTILEQNYGGKRYPVRNYYSAASYRQQVVHYITPPGTVAQSAPNLAGSRSYRETGTMTVTVDALNVRRAPNTSGEIVAVYKRGESFDYDTVIIDVNGYVWVSYIGGSGKRNYVATGATKDGKRFGNAWGTFK
concentration giving acute lytic activity (S. suis strain 7997): ≥ 8 µg/mL | development of resistance (MRSA strain MW2): Neither S. aureus strain developed resistance; also recorded: None of MRSA strain MW2, MSSA strain 8325, nor S. pyogenes strain 5005 developed resistance | development of resistance (S. pyogenes strain 5005): neither MRSA nor S. pyogenes established resistance; also recorded: None of MRSA strain MW2, MSSA strain 8325, nor S. pyogenes strain 5005 developed resistance | clearing zone around drops on lawns of 6 rat oral cultures [1]: only appeared on one culture | survival evaluated over ten days (MRSA [2]; 500 μL PlySs2 at 2 mg/mL IP 3 hours after MRSA): remarkable survival | mice cleared of bacteremia (survival over 10 days) (MRSA [2]; MRSA bacteremia, FIG. 24): 95% | reduction in CFU counts (S. agalactiae): dramatically reduced | minimum inhibitory concentration (MIC) (MRSA [3]): 16 µg/mL | strains lysed of strains tested (Listeria strains): 2 of 6 | lytic activity (Pseudomonas): did not display activity | consecutive room temperature to −80° C. freeze-thaws without effect on activity (S. suis 7997): 10 | effect of NaCl on bacteriolysis (S. suis 7997; 0-1000 mM NaCl, constant enzyme concentration): bacteriolysis decreased from 0-1000 mM NaCl | effect of EDTA on lysis (S. suis 7997; 15 mM Na3PO4, pH 8.0, various EDTA concentrations): impeded PlySs2-induced lysis | activity after 15 days of 4° C. incubation (S. suis 7997; 4° C., 15 days): no observable decrease in activity; also recorded: stable | activity after incubation at 37° C. for 24 hours (S. suis 7997; 37° C., 24 hours): retained full activity; also recorded: stable | stability up to 24 hours at 37° C. in buffer (S. suis 7997; 37° C., 24 hours, killing of strain 7997): > 90% | activity after 48-hour 37° C. incubation (S. suis 7997; 37° C., 48 hours): diminished activity | activity maintained after 48 hours at 37° C. (S. suis 7997; 37° C., 48 hours): at least 50% | temperature at which activity completely abolished (S. suis 7997; 30 min incubation): 60 °C | pH of maximal lysis in BTP (S. suis 7997; BTP buffer pH 7.0-9.7): 9.7 | acute activity up to pH (S. suis 7997; Bis-tris propane (BTP) buffer): ≤ 9.7 | activity down to pH (S. suis 7997; PlySs2 32 μg/ml): ≥ 6.0 | effect of excess DTT on activity (S. suis 7997; data not shown): no impact | pH of strongest activity (S. suis 7997; phosphate/citrate buffer pH 4.6-8.0, PlySs2 32 μg/ml): 8.0 | activity retained on storage in buffer at −80° C. (S. suis 7997; up to at least 7 months at −80° C.): ~100% | NaCl concentration of greatest activity (S. suis 7997; various NaCl concentrations): 0 mM
